Data published in article PMC3243729.

Biological target: EGFP-N-Talin1-C-mCherry (UniProt P26039)
Test: single-molecule photobleaching step counting and point spread function fit (TIRF microscopy); living CV1 cells with low expression of EGFP-Talin1-mCherry; EGFP spots more than 500 nm from other EGFPs; bleaching steps counted and the spot shape fitted to a single or a dimeric PSF
Conditions: remark: other sources report otherwise

stoichiometry N: 2
Substance: EGFP-N-Talin1-C-mCherry, P26039 1-2541
